The target in one experiment is GST-WASP(201–321) K225A (UniProt P42768). The experiment is described as follows: scintillation proximity assay (SPA); 5 nM GST-WASP variant immobilised on protein A SPA fluoromicrospheres via an anti-GST antibody; varying concentrations of [3H]GTP·Cdc42; direct binding isotherm; apparent Kd; low-salt buffer. Background: In a scintillation proximity assay essentially only radioactivity close to the scintillant gives light.

Experiment [1] concerns the target GST-WASP(201–321) K225A/K226A (UniProt P42768). The experiment is described as above.
In experiment [2] the target is GST-WASP(201–321) K225A/K226A/R227A (UniProt P42768). The experiment is described as above.
Experiment [3] concerns the target GST-WASP(201–321) K225A/K226A/R227A/K230A/K231A/K232A (UniProt P42768). The experiment is described as above.
For experiment [4], the target named is GST-WASP(201–321) K225A/R227A (UniProt P42768). Described as above.
Experiment [5] addresses GST-WASP(201–321) K226A (UniProt P42768). The experiment is described as above.
Experiment [6] concerns the target GST-WASP(201–321) K226A/R227A (UniProt P42768). The description is as above.
Another experiment concerns the target GST-WASP(201–321) K230A (UniProt P42768). Described as above.
Experiment [7] has as its target GST-WASP(201–321) K230A/K231A (UniProt P42768). The experiment is described as above.
In experiment [8] the target is GST-WASP(201–321) K230A/K231A/K232A (UniProt P42768). Described as above.
Experiment [9] addresses GST-WASP(201–321) K230A/K232A (UniProt P42768). Described as above.
The next experiment concerns the target GST-WASP(201–321) K231A (UniProt P42768). The description is as above.
Experiment [10] concerns the target GST-WASP(201–321) K231A/K232A (UniProt P42768). Described as above.
The next experiment has as its target GST-WASP(201–321) K232A (UniProt P42768). The experiment is described as above.
In a further experiment the target is GST-WASP(201–321) R227A (UniProt P42768). The description is as above.
For experiment [11], the target named is GST-WASP(201–321) wild type (UniProt P42768). The experiment is described as above.
The target in experiment [12] is GST-WASP(201–321) K226A (UniProt P42768). The experiment is described as follows: BLI; Octet Red; GST-WASP variants loaded on anti-GST sensors (10 μg/ml), dipped into a dilution range of Cdc42·GMPPNP; 50 mM Tris-HCl pH 7.5, 150 mM NaCl, 1 mM MgCl2, 0.02% Tween 20, 0.1% BSA, 0.05% sodium azide, 25 °C; GST-alone sensors subtracted. For orientation: BLI is a label-free optical method that tracks binding on a fibre tip over time.

For orientation: koff means the first-order rate constant of dissociation. A lower koff goes with slow dissociation. The term kon denotes a measure of how fast the partners come together. A low value points to slower complex formation.

With “Cdc42 Δ7 Q61L (from UniProt P60953 1-191) (natural protein)”, the Kd with GST-WASP(201–321) K225A is 2800 nM; in experiment [1], 7.4 µM; in experiment [2], 8.8 µM; in [3] it was 98.6 µM; in experiment [4] it was 7.5 µM; in the experiment with GST-WASP(201–321) K226A [5], 5.4 µM. The Kd in experiment [6] was found to be 5.7 µM; with GST-WASP(201–321) K230A, 9.7 µM; in experiment [7] it was 12.9 µM; in experiment [8], 36 µM; in experiment [9], 18.4 µM; with GST-WASP(201–321) K231A, 12.4 µM. In addition, the Kd in experiment [10] is 21.7 µM; with GST-WASP(201–321) K232A it was 12.2 µM; with GST-WASP(201–321) R227A, 4.3 µM; in [11] it was 500 nM; in the experiment with GST-WASP(201–321) K226A [12] it was 54.4 nM. Also, the koff in the experiment with GST-WASP(201–321) K226A [12] was 0.0338 s⁻¹. In the experiment with GST-WASP(201–321) K226A [12], this substance returned an association rate constant (kon) of 676000 M⁻¹ s⁻¹.

(Values after article PMC6166713.)
